Assays:
[1] = target: human BTN3A1 antigen (Sino Biological cat. no. 15973-H08H) (human) (UniProt O00481); assay: SPR, Biacore T200 multi-cycle kinetics; antibody captured on Protein A, BTN3A1 as analyte
[2] = target: human BTN3A as expressed on human cells (PBMCs, Daudi Burkitt's lymphoma cells, AML cells, monocytes) (human) (UniProt O00481); assay: cell-based or functional assay
[3] = target: cynomolgus BTN3A as expressed on cynomolgus PBMCs (cynomolgus); assay: flow cytometry on cynomolgus PBMCs
[4] = target: human BTN3A as expressed on human cells (PBMCs, Daudi Burkitt's lymphoma cells, AML cells, monocytes) (human) (UniProt O00481); assay: flow cytometry on Daudi Burkitt's lymphoma cells
[5] = target: human BTN3A as expressed on human cells (PBMCs, Daudi Burkitt's lymphoma cells, AML cells, monocytes) (human) (UniProt O00481); assay: flow cytometry on human PBMCs

Chain of human BTN3A1 antigen (Sino Biological cat. no. 15973-H08H) (human) (O00481 30-254 limits assumed): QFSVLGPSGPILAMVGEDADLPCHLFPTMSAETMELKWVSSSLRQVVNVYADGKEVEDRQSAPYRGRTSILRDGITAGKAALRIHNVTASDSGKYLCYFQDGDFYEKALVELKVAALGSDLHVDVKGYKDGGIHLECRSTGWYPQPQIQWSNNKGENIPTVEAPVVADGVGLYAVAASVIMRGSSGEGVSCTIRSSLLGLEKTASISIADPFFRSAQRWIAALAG

Kd [1]: 0.234 nM
Functional assay (AML resistant) (γδT cell-based, EC50, µg/mL) [2]: 0.18 µg/mL
Functional assay (AML sensitive) (γδT cell-based, EC50, µg/mL) [2]: 0.05 µg/mL
Functional assay (Daudi) (γδT cell-based, EC50, µg/mL) [2]: 0.02 µg/mL
Vγ9Vδ2 T cell degranulation with PBMCs from C. burnetii patients, 20.1 at 10 µg/ml [2]: 24.1%
Vγ9Vδ2 T cell degranulation with PBMCs from healthy donors, 20.1 at 10 µg/ml [2]: 3.24%
Vγ9Vδ2 T cell degranulation, Mean % CD107+ cells, monocytes infected with C. burnetii Guiana, 20.1 at 10 µg/ml (isotype 37.23) (% CD107+ cells) [2]: 71.5
Vγ9Vδ2 T cell degranulation, Mean % CD107+ cells, monocytes infected with C. burnetii NM1, 20.1 at 10 µg/ml (isotype 42.1) (% CD107+ cells) [2]: 67.2
Vγ9Vδ2 T cell degranulation, Mean % CD107+ cells, non stimulated monocytes, 20.1 at 10 µg/ml (isotype 8.59) (% CD107+ cells) [2]: 45.8
EC50 [3]: 4.06 µg/mL
EC50 [4]: 1.19 µg/mL
EC50 [5]: 3.02 µg/mL
Substance: mAb 20.1, parent murine antibody
